Literature values, collected in paper PMC9106955.

Molecular target: GLP-1R N-terminal domain (UniProt P43220)
UniProt P43220, sequence (P43220 24-145): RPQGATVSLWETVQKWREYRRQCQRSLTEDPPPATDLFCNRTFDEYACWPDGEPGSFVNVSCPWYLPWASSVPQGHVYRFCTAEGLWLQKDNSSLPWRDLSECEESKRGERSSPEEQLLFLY

In the case of Exendin-4 (from UniProt P26349), the Kd is given as 6 nM.
